# From publication PMC10648788, “Ahf-Caltide, a Novel Polypeptide Derived from Calpastatin, Protects against Oxidative Stress Injury by Stabilizing the Expression of CaV1.2 Calcium Channel” (International Journal of Molecular Sciences, 2023)
# T1: GST-IQ, IQ motif of the CaV1.2 channel alpha1 subunit (UniProt O35505 1648-1668)
# T1 construct: CaV1.2 calcium channel alpha1 subunit, IQ motif, a.a; 1648-1668, GenBank AB016287; also called IQ domain; source: E. coli BL21, purified (Glutathione Sepharose 4B)
# T1 chain (looked up): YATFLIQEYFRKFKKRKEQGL
# B1: Calpastatin (CAST) domain L (domain or fragment, UniProt P20810 3-148, looked up)
# chain: PTETKAIPVSQQMEGPHLPNKKKHKKQAVKTEPEKKSQSTKLSVVHEKKSQEGKPKEHTEPKSLPKQASDTGSNDAHNKKAVSRSAEQQPSEKSTEPKTKPQDMISAGGESVAGITAISGKPGDKKKEKKSLTPAVPVESKPDKPS
# notes: calpastatin (CAST) domain L (CSL), a.a; In the H2O2 experiments CSL was incubated with H2O2 present; The chemical change is not defined; also called CSL; source: E. coli BL21, purified (Glutathione Sepharose 4B), GST removed using PreScission protease
# B2: GST-NT, N terminus of the CaV1.2 channel alpha1 subunit (domain or fragment, UniProt O35505 6-140, looked up)
# chain: QPTTPAYRPLPSHLSADTEVRGRGTLVHEAQLNCFYISPGGSNYGSPRPAHANINANAAAGLAPEHIPTPGAALSWQAAIDAGRQAKLMGSAGNTTISTVSSTQRKRQQYGKPKKQSGTTATRPPRALLCLTLKN
# notes: CaV1.2 calcium channel alpha1 subunit, N terminus (NT), a.a; 6-140, GenBank AB016287; source: E. coli BL21, purified (Glutathione Sepharose 4B)
# Legend:
# Conditions in all cases: both partners purified
# [1] = target: B2; experiment: pull-down; GST fusion (15 ug) with 10 uM CSL in 400 uL Tris buffer, 4 C, 4 h; [Ca2+] 10 uM, H2O2 0 M; Coomassie-stained gel quantified
# [2] = target: T2, GST-CT1, proximal portion of the C terminus of the CaV1.2 channel alpha1 subunit (UniProt O35505 1509-1789); experiment: as above
# T2 construct: CaV1.2 calcium channel alpha1 subunit, CT1 (proximal portion of CT), a.a; 1509-1789, GenBank AB016287; source: E. coli BL21, purified (Glutathione Sepharose 4B)
# T2 sequence (O35505 1509-1789): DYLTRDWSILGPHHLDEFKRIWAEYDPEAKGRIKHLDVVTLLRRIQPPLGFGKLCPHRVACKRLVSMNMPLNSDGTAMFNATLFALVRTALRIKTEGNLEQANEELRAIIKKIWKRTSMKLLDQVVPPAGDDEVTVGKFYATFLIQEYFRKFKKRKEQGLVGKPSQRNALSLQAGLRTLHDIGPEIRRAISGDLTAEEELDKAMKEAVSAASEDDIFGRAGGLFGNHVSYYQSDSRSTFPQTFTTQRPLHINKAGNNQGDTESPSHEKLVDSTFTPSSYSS
# [3] = target: T3, GST-PreIQ, PreIQ motif of the CaV1.2 channel alpha1 subunit (UniProt O35505 1599-1639); experiment: as above
# T3 construct: CaV1.2 calcium channel alpha1 subunit, PreIQ motif, a.a; 1599-1639, GenBank AB016287; source: E. coli BL21, purified (Glutathione Sepharose 4B)
# T3 sequence (O35505 1599-1639): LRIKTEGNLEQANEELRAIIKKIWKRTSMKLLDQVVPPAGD
# [4] = target: T1, GST-IQ, IQ motif of the CaV1.2 channel …; experiment: as above
# [5] = target: B2; experiment: pull-down; GST fusion (15 ug) with 10 uM CSL in 400 uL Tris buffer, 4 C, 4 h; [Ca2+] 10 uM, H2O2 10^-1 M; Coomassie-stained gel quantified
# [6] = target: T2, GST-CT1, proximal portion of the C …; experiment: as above
# [7] = target: T3, GST-PreIQ, PreIQ motif of the CaV1.2 …; experiment: as above
# [8] = target: T1, GST-IQ, IQ motif of the CaV1.2 channel …; experiment: as above
# [9] = target: B2; experiment: pull-down; GST fusion (15 ug) with 10 uM CSL in 400 uL Tris buffer, 4 C, 4 h; [Ca2+] 10 uM, H2O2 10^-2 M; Coomassie-stained gel quantified
# [10] = target: T2, GST-CT1, proximal portion of the C …; experiment: as above
# [11] = target: T3, GST-PreIQ, PreIQ motif of the CaV1.2 …; experiment: as above
# [12] = target: T1, GST-IQ, IQ motif of the CaV1.2 channel …; experiment: as above
# [13] = target: B1; experiment: pull-down; GST-NT (15 ug) incubated with CSL 0-30 uM for 4 h in 400 uL Tris buffer, [Ca2+] 1 mM; Coomassie-stained gel quantified; one-site fit, apparent Kd
# [14] = target: B1; experiment: pull-down; GST-NT (15 ug) incubated with CSL 0-30 uM for 4 h in 400 uL Tris buffer, [Ca2+] 10 uM; Coomassie-stained gel quantified; one-site fit, apparent Kd
# [15] = target: B1; experiment: pull-down; GST-NT (15 ug) incubated with CSL 0-30 uM for 4 h in 400 uL Tris buffer, [Ca2+] 25 nM; Coomassie-stained gel quantified; one-site fit, apparent Kd
Kd [13],Kd [14],Kd [15],Binder,binding density of CSL [1],binding density of CSL [2],binding density of CSL [3],binding density of CSL [4],binding density of CSL [5],binding density of CSL [6],binding density of CSL [7],binding density of CSL [8],binding density of CSL [9],binding density of CSL [10],binding density of CSL [11],binding density of CSL [12]
,,,B1,0.46,0.52,0.16,0.15,0.46,0.68,0.16,0.26,0.46,1.12,0.16,0.34
1320 nM,1480 nM,1110 nM,B2,,,,,,,,,,,,
